Tests used:
[1] = biological target: SecA^A795C-FL (SecA with a fluorescein label at position 795 on the tip of the two-helix finger) (E. coli) (UniProt P10408); experiment: other fluorescence titration; 10 nM SecA* fixed, SecYEG varied; quenching of the fluorescein on SecA*; TSG buffer (20 mM Tris pH 7.5, 130 mM NaCl, 10% glycerol) with 0.02% DDM, 2 mM MgCl2, 1 mM AMPPNP; no DTT; fitted to a tight binding equation
[2] = biological target: SecA^A795C-FL (SecA with a fluorescein label at position 795 on the tip of the two-helix finger) (E. coli) (UniProt P10408); experiment: other fluorescence titration; as a1 (10 nM SecA*, TSG buffer, 0.02% DDM, 2 mM MgCl2, 1 mM AMPPNP) with SecYLGEG pre-incubated with 100 mM DTT

| Kd [1] | Kd [2] | Substance |
| --- | --- | --- |
| 41 nM | – | SecYLGEG, oxidised (SecYEG with the lateral gate closed by a disulphide bond between S87C and F286C of SecY) (from UniProt P0AGA2 1-443; P0AG96 1-127; P0AG99 1-110) (complex) |
| – | 19 nM | SecYLGEG pre-incubated with 100 mM DTT (disulphide between S87C and F286C of SecY reduced) (from UniProt P0AGA2 1-443; P0AG96 1-127; P0AG99 1-110) (complex) |

Source: PMC4907695
